B1: Monocarboxylate transporter 1 (Rattus norvegicus (Rat)), P53987 (parent)
chain: MPPAIGGPVGYTPPDGGWGWAVVVGAFISIGFSYAFPKSITVFFKEIEIIFSATTSEVSWISSIMLAVMYAGGPISSILVNKYGSRPVMIAGGCLSGCGLIAASFCNTVQELYFCIGVIGGLGLAFNLNPALTMIGKYFYKKRPLANGLAMAGSPVFLSTLAPLNQAFFGIFGWRGSFLILGGLLLNCCVAGSLMRPIGPQQGKVEKLKSKESLQEAGKSDANTDLIGGSPKGEKLSVFQTVNKFLDLSLFTHRGFLLYLSGNVVMFFGLFTPLVFLSNYGKSKHFSSEKSAFLLSILAFVDMVARPSMGLAANTRWIRPRVQYFFAASVVANGVCHLLAPLSTTYVGFCIYAGVFGFAFGWLSSVLFETLMDLVGPQRFSSAVGLVTIVECCPVLLGPPLLGRLNDMYGDYKYTYWACGVILIIAGLYLFIGMGINYRLVAKEQKAEEKKRDGKEDETSTDVDEKPKKTMKETQSPAPLQNSSGDPAEEESPV
B2: Basigin (Homo sapiens), P35613 (parent)
chain: MAAALFVLLGFALLGTHGASGAAGFVQAPLSQQRWVGGSVELHCEAVGSPVPEIQWWFEGQGPNDTCSQLWDGARLDRVHIHATYHQHAASTISIDTLVEEDTGTYECRASNDPDRNHLTRAPRVKWVRAQAVVLVLEPGTVFTTVEDLGSKILLTCSLNDSATEVTGHRWLKGGVVLKEDALPGQKTEFKVDSDDQWGEYSCVFLPEPMGTANIQLHGPPRVKAVKSSEHINEGETAMLVCKSESVPPVTDWAWYKITDSEDKALMNGSESRFFVSSSQGRSELHIENLNMEADPGQYRCNGTSSKGSDQAIITLRVRSHLAALWPFLGIVAEVLVLVTIIFIYEKRRKPEDVLDDDDAGSAPLKSSGQHQNDKGKNVRQRNSS
partner: B1 chain

Tests used:
basi_human BSG, P35613 [1] = variants of: B1; conditions: with basi_human BSG
basi_human BSG, P35613 [2] = variants of: B1; conditions: with basi_human BSG; remark: listed apart in the source
mot1_rat Slc16a1, P53987 [3] = variants of: B2; conditions: with mot1_rat Slc16a1, P53987
mot1_rat Slc16a1, P53987 [4] = variants of: B2; conditions: with mot1_rat Slc16a1, P53987; remark: listed apart in the source

Row | Variant | effect of a mutation on the interaction (basi_human BSG, P35613 [1]) | effect of a mutation on the interaction (basi_human BSG, P35613 [2]) | effect of a mutation on the interaction (mot1_rat Slc16a1, P53987 [3]) | effect of a mutation on the interaction (mot1_rat Slc16a1, P53987 [4])
1 | MPPAIGGPVGYTPPDGGWGWAVVVGAFISIGFSYAFPKSITVFFKEIEIIFSATTSEVSWISSIMLAVMYAGGPISSILVNKYGSQPVMIAGGCLSGCGLIAASFCNTVQELYFCIGVIGGLGLAFNLNPALTMIGKYFYKKRPLANGLAMAGSPVFLSTLAPLNQAFFGIFGWRGSFLILGGLLLNCCVAGSLMRPIGPQQGKVEKLKSKESLQEAGKSDANTDLIGGSPKGEKLSVFQTVNKFLDLSLFTHRGFLLYLSGNVVMFFGLFTPLVFLSNYGKSKHFSSEKSAFLLSILAFVDMVARPSMGLAANTRWIRPRVQYFFAASVVANGVCHLLAPLSTTYVGFCIYAGVFGFAFGWLSSVLFETLMDLVGPQRFSSAVGLVTIVECCPVLLGPPLLGRLNDMYGDYKYTYWACGVILIIAGLYLFIGMGINYRLVAKEQKAEEKKRDGKEDETSTDVDEKPKKTMKETQSPAPLQNSSGDPAEEESPV [R86Q] | with no effect | decreasing interaction strength |  | 
2 | MPPAIGGPVGYTPPDGGWGWAVVVGAFISIGFSYAFPKSITVFFKEIEIIFSATTSEVSWISSIMLAVMYAGGPISSILVNKYGSEPVMIAGGCLSGCGLIAASFCNTVQELYFCIGVIGGLGLAFNLNPALTMIGKYFYKKRPLANGLAMAGSPVFLSTLAPLNQAFFGIFGWRGSFLILGGLLLNCCVAGSLMRPIGPQQGKVEKLKSKESLQEAGKSDANTDLIGGSPKGEKLSVFQTVNKFLDLSLFTHRGFLLYLSGNVVMFFGLFTPLVFLSNYGKSKHFSSEKSAFLLSILAFVDMVARPSMGLAANTRWIRPRVQYFFAASVVANGVCHLLAPLSTTYVGFCIYAGVFGFAFGWLSSVLFETLMDLVGPQRFSSAVGLVTIVECCPVLLGPPLLGRLNDMYGDYKYTYWACGVILIIAGLYLFIGMGINYRLVAKEQKAEEKKRDGKEDETSTDVDEKPKKTMKETQSPAPLQNSSGDPAEEESPV [R86E] | with no effect | decreasing interaction strength |  | 

Other lines, results leading:

Row | effect of a mutation on the interaction (basi_human BSG, P35613 [1]) | effect of a mutation on the interaction (basi_human BSG, P35613 [2]) | effect of a mutation on the interaction (mot1_rat Slc16a1, P53987 [3]) | effect of a mutation on the interaction (mot1_rat Slc16a1, P53987 [4]) | Variant
3 | disrupting interaction strength |  |  |  | MPPAIGGPVGYTPPDGGWGWAVVVGAFISIGFSYAFPKSITVFFKEIEIIFSATTSEVSWISSIMLAVMYAGGPISSILVNKYGSRPVMIAGGCLSGCGLIAASFCNTVQELYFCIGVIGGLGLAFNLNPALTMIGKYFYKKRPLANGLAMAGSPVFLSTLAPLNQAFFGIFGWRGSFLILGGLLLNCCVAGSLMEPIGPQQGKVEKLKSKESLQEAGKSDANTDLIGGSPKGEKLSVFQTVNKFLDLSLFTHRGFLLYLSGNVVMFFGLFTPLVFLSNYGKSKHFSSEKSAFLLSILAFVDMVARPSMGLAANTRWIRPRVQYFFAASVVANGVCHLLAPLSTTYVGFCIYAGVFGFAFGWLSSVLFETLMDLVGPQRFSSAVGLVTIVECCPVLLGPPLLGRLNDMYGDYKYTYWACGVILIIAGLYLFIGMGINYRLVAKEQKAEEKKRDGKEDETSTDVDEKPKKTMKETQSPAPLQNSSGDPAEEESPV [R196E]
4 |  |  | decreasing interaction strength | with no effect | MAAALFVLLGFALLGTHGASGAAGFVQAPLSQQRWVGGSVELHCEAVGSPVPEIQWWFEGQGPNDTCSQLWDGARLDRVHIHATYHQHAASTISIDTLVEEDTGTYECRASNDPDRNHLTRAPRVKWVRAQAVVLVLEPGTVFTTVEDLGSKILLTCSLNDSATEVTGHRWLKGGVVLKEDALPGQKTEFKVDSDDQWGEYSCVFLPEPMGTANIQLHGPPRVKAVKSSEHINEGETAMLVCKSESVPPVTDWAWYKITDSEDKALMNGSESRFFVSSSQGRSELHIENLNMEADPGQYRCNGTSSKGSDQAIITLRVRSHLAALWPFLGIVAQVLVLVTIIFIYEKRRKPEDVLDDDDAGSAPLKSSGQHQNDKGKNVRQRNSS [E334Q]
5 |  |  | decreasing interaction strength |  | MAAALFVLLGFALLGTHGASGAAGFVQAPLSQQRWVGGSVELHCEAVGSPVPEIQWWFEGQGPNDTCSQLWDGARLDRVHIHATYHQHAASTISIDTLVEEDTGTYECRASNDPDRNHLTRAPRVKWVRAQAVVLVLEPGTVFTTVEDLGSKILLTCSLNDSATEVTGHRWLKGGVVLKEDALPGQKTEFKVDSDDQWGEYSCVFLPEPMGTANIQLHGPPRVKAVKSSEHINEGETAMLVCKSESVPPVTDWAWYKITDSEDKALMNGSESRFFVSSSQGRSELHIENLNMEADPGQYRCNGTSSKGSDQAIITLRVRSHLAALWPFLGIVARVLVLVTIIFIYEKRRKPEDVLDDDDAGSAPLKSSGQHQNDKGKNVRQRNSS [E334R]
